The record followed here is patent EP0251446B1, “Non-human Carbonyl hydrolase mutants, DNA sequences and vectors encoding same and hosts transformed with said vectors” (GENENCOR INTERNATIONAL, INC., priority 1986, dated 1988).

What all share (type): biochemical, B. amyloliquefaciens
Substrate in data set [1]: C[C@H](NC(=O)CCC(=O)O)C(=O)N[C@@H](C)C(=O)N1CCC[C@H]1C(=O)N[C@@H](Cc1ccccc1)C(=O)Nc1ccc([N+](=O)[O-])cc1
In words: Kinetics of p-nitroanilide substrate hydrolysis, S156. The following applies: other: Table XIII, S156; synthetic substrate with label as P-1 residue; 37.0 °C. The text has this:
(§1) Wild-type subtilisin was purified from B. subtilis culture supernatants expressing the B. amyloliquefaciens subtilisin gene (Wells, J.A., et al. (1983) Nucleic Acids Res. 11, 7911-7925) as previously described (Estell, D.A., et al. (1985) J. Biol. Chem. 260, 6518-6521). Details of the synthesis of tetrapeptide substrates having the form succinyl-L-AlaL-AlaL-ProL-[X]-p-nitroanilide (where X is the P1 amino acid) are described by DelMar, E.G., et al. (1979) Anal. Biochem. 99, 316-320. Kinetic parameters, Km(M) and kcat-(s-^1) were measured using a modified progress curve analysis (Estell, D.A., et al. (1985) J. Biol. Chem. 260, 6518-6521). Briefly, plots of rate versus product concentration were fit to the differential form of the rate equation using a non-linear regression algorithm. Errors in kcat and Km for all values reported are less than five percent. The various substrates in Table VIII are ranged in order of decreasing hydrophobicity. Nozaki, Y. (1971), J. Biol. Chem. 246, 2211-2217; Tanford C. (1978) Science 200, 1012).
(§2) Construction of position 156 single mutants were prepared by ligation of the three fragments (1-3) indicated at the bottom of Figure 21. Fragment 3, containing the carboxy-terminal portion of the subtilisin gene including the wild type position 166 codon, was isolated as a 610 bp Sacl-BamHI fragment. Fragment 1 contained the vector sequences, as well as the amino-terminal sequences of the subtilisin gene through codon 151. To produce fragment 1, a unique Kpnl site at codon 152 was introduced into the wild type subtilisin sequence from pS4.5. Site-directed mutagenesis in M13 employed a primer having the sequence 5'-TA-GTC-GTT-GCG-GTA-CCC-GGT-AAC-GAA-3' to produce the mutation. Enrichment for the mutant sequence was accomplished by restriction with Kpnl, purification and self ligation. The mutant sequence containing the Kpnl site was confirmed by direct plasmid sequencing to give pV152. pV152 (-1 µg) was digested with Kpnl and treated with 2 units of DNA polymerase I large fragment (Klenow fragment from Boeringer-Mannheim) plus 50 µM deoxynucleotide triphosphates at 37°C for 30 min. This created a blunt end that terminated with codon 151. The DNA was extracted with 1:1 volumes phenol and CHC13 and DNA in the aqueous phase was precipitated by addition of 0.1 volumes 5M ammonium acetate and two volumes ethanol. After centrifugation and washing the DNA pellet with 70% ethanol, the DNA was lyophilized. DNA was digested with BamHl and the 4.6kb piece (fragment 1) was purified by acrylamide gel electrophoresis followed by electroelution. […] The top strand was synthesized to contain a glutamine codon, and the complementary bottom strand coded for serine at 156. Ligation of heterophosphorylated cassettes leads to a large and favorable bias for the phosphorylated over the non-phosphorylated oligonucleotide sequence in the final segrated plasmid product. Therefore, to obtain Q156 the top strand was phosphorylated, and annealed to the non-phosphorylated bottom strand prior to ligation. Similarly, to obtain S156 the bottom strand was phosphorylated and annealed to the non-phosphorylated top strand. Mutant sequences were isolated after ligation and transformation, and were confirmed by restriction analysis and DNA sequencing as before. To express variant subtilisins, plasmids were transformed into a subtilisin-neutral protease deletion mutant of B. subtilis, BG2036, as previously described. Cultures were fermented in shake flasks for 24 h at 37 ° C in LB media containing […] chloramphenicol and subtilisin was purified from culture supernatants as described. Purity of subtilisin was greater than 95% as judged by SDS PAGE.
(§3) These mutant plasmids designated pS156 and pQ156 and mutant subtilisins designated S156 and Q156 were analyzed with the above synthetic substrates where P-1 comprised the amino acids Glu, Gln, Met and Lys. The results of this analyses are presented in Example 9. […]

Substrate in data set [2]: CSCC[C@H](NC(=O)[C@@H]1CCCN1C(=O)[C@H](C)NC(=O)[C@H](C)NC(=O)CCC(=O)O)C(=O)Nc1ccc([N+](=O)[O-])cc1
Described as above. The following applies: other: Table XIV, 156 Ser / 166 Gly; value in parentheses; synthetic substrate with label as P-1 amino acid; 37.0 °C.
From the text: as §1, §2, §3

Substrate in data set [3]: C[C@H](NC(=O)CCC(=O)O)C(=O)N[C@@H](C)C(=O)N1CCC[C@H]1C(=O)N[C@@H](CCC(N)=O)C(=O)Nc1ccc([N+](=O)[O-])cc1
Described as above. As to conditions: other: Table XIV, 156 Ser / 166 Gly; value in parentheses; synthetic substrate with label as P-1 amino acid; 37.0 °C.
From the text: as §1, §2, §3

Substrate in data set [4]: C[C@H](NC(=O)CCC(=O)O)C(=O)N[C@@H](C)C(=O)N1CCC[C@H]1C(=O)N[C@@H](CCC(=O)O)C(=O)Nc1ccc([N+](=O)[O-])cc1
The data set is described as above. As to conditions: 37.0 °C.
From the text: as §1, §2, §3

Substrate in data set [5]: C[C@H](NC(=O)CCC(=O)O)C(=O)N[C@@H](C)C(=O)N1CCC[C@H]1C(=O)N[C@@H](CCCCN)C(=O)Nc1ccc([N+](=O)[O-])cc1
The data set is described as above. As to conditions: other: Table XIV, 156 Ser / 166 Gly; value in parentheses; synthetic substrate with label as P-1 amino acid; 37.0 °C.
From the text: as §1, §2, §3

Substrate in data set [6]: C[C@H](NC(=O)CCC(=O)O)C(=O)N[C@@H](C)C(=O)N1CCC[C@H]1C(=O)N[C@@H](Cc1ccccc1)C(=O)Nc1ccc([N+](=O)[O-])cc1
In words: Kinetics of p-nitroanilide substrate hydrolysis, Q156. As to conditions: other: Table XIII, enzyme E156; synthetic substrate with label as P-1 residue; 37.0 °C.
From the text: as §1, §2, §3

Substrate in data set [7]: CSCC[C@H](NC(=O)[C@@H]1CCCN1C(=O)[C@H](C)NC(=O)[C@H](C)NC(=O)CCC(=O)O)C(=O)Nc1ccc([N+](=O)[O-])cc1
Described as above. As to conditions: other: Table XIV, 156 Gln / 166 Gly; value in parentheses; synthetic substrate with label as P-1 amino acid; 37.0 °C.
From the text: as §1, §2, §3

Substrate in data set [8]: C[C@H](NC(=O)CCC(=O)O)C(=O)N[C@@H](C)C(=O)N1CCC[C@H]1C(=O)N[C@@H](CCC(N)=O)C(=O)Nc1ccc([N+](=O)[O-])cc1
The data set is described as above. As to conditions: other: Table XIV, 156 Gln / 166 Gly; value in parentheses; synthetic substrate with label as P-1 amino acid; 37.0 °C.
From the text: as §1, §2, §3

Substrate in data set [9]: C[C@H](NC(=O)CCC(=O)O)C(=O)N[C@@H](C)C(=O)N1CCC[C@H]1C(=O)N[C@@H](CCC(=O)O)C(=O)Nc1ccc([N+](=O)[O-])cc1
Described as above. As to conditions: 37.0 °C.
From the text: as §1, §2, §3

Substrate in data set [10]: C[C@H](NC(=O)CCC(=O)O)C(=O)N[C@@H](C)C(=O)N1CCC[C@H]1C(=O)N[C@@H](CCCCN)C(=O)Nc1ccc([N+](=O)[O-])cc1
Described as above. The following applies: other: Table XIV, 156 Gln / 166 Gly; value in parentheses; synthetic substrate with label as P-1 amino acid; 37.0 °C.
From the text: as §1, §2, §3

Substrate in data set [11]: CSCC[C@H](NC(=O)[C@@H]1CCCN1C(=O)[C@H](C)NC(=O)[C@H](C)NC(=O)CCC(=O)O)C(=O)Nc1ccc([N+](=O)[O-])cc1
In words: Kinetics of p-nitroanilide substrate hydrolysis, R166. The following applies: other: Table XIV, 156 Glu / 166 Arg; value in parentheses; synthetic substrate with label as P-1 amino acid.
From the text: as §1
(§4) The construction of subtilisin mutants containing the substitution of the ionic amino acids Asp, Asn, Gln, Lys and Ang are disclosed in EPO Publication No. 0130756. The present example describes the construction of the mutant subtilisin containing Glu at position 166 (E166) and presents substrate specificity data on these mutants. Further data on position 166 and 156 single and double mutants is presented infra.
(§5) Each of these mutants was analyzed with the tetrapeptide substrates, succinyl-L-AlaL-AlaProL-X-p-nitroanilide, where X was Phe, Ala and Glu.

Substrate in data set [12]: C[C@H](NC(=O)CCC(=O)O)C(=O)N[C@@H](C)C(=O)N1CCC[C@H]1C(=O)N[C@@H](CCC(N)=O)C(=O)Nc1ccc([N+](=O)[O-])cc1
Described as above. The following applies: other: Table XIV, 156 Glu / 166 Arg; value in parentheses; synthetic substrate with label as P-1 amino acid.
From the text: as §1, §4, §5

Substrate in data set [13]: C[C@H](NC(=O)CCC(=O)O)C(=O)N[C@@H](C)C(=O)N1CCC[C@H]1C(=O)N[C@@H](CCC(=O)O)C(=O)Nc1ccc([N+](=O)[O-])cc1
The description is as above. As to conditions: other: Table XIV, 156 Glu / 166 Arg; value in parentheses; synthetic substrate with label as P-1 amino acid.
From the text: as §1, §4, §5

Substrate in data set [14]: C[C@H](NC(=O)CCC(=O)O)C(=O)N[C@@H](C)C(=O)N1CCC[C@H]1C(=O)N[C@@H](CCCCN)C(=O)Nc1ccc([N+](=O)[O-])cc1
Described as above. The following applies: other: Table XIV, 156 Glu / 166 Arg; value in parentheses; synthetic substrate with label as P-1 amino acid.
From the text: as §1, §4, §5

[15] abbreviates: other: Table XIII, S156, synthetic substrate with label as P-1 residue.
Setting [16] is: other: Table XIII, enzyme E156, synthetic substrate with label as P-1 residue.

Positions count from the first letter of the chain named. In names and notes the source's numbering stands.

B1: B. amyloliquefaciens subtilisin variant S156 (Glu156 to Ser) (Bacillus amyloliquefaciens; E263S) (protein)
chain: AQSVPYGVSQIKAPALHSQGYTGSNVKVAVIDSGIDSSHPDLKVAGGASMVPSETNPFQDNNSHGTHVAGTVAALNNSIGVLGVAPSASLYAVKVLGADGSGQYSWIINGIEWAIANNMDVINMSLGGPSGSAALKAAVDKAVASGVVVVAAAGNSGTSGSSSTVGYPGKYPSVIAVGAVDSSNQRASFSSVGPELDVMAPGVSIQSTLPGNKYGAYNGTSMASPHVAGAAALILSKHPNWTNTQVRSSLENTTTKLGDSFYYGKGLINVQAAAQ
notes: at various amino acid residues within the mature form of the subtilisin molecule; made in house; host or cells: Bacillus subtilis BG2036
Take B1: the Km in [1] came to 47 µM; in [2], 28.2 µM; in [3] it was 209 µM; in data set [4] (setting [15]) it was 1800 µM; in data set [4] (other: Table XIV, 156 Ser / 166 Gly, value in parentheses, synthetic substrate with label as P-1 amino acid), 1860 µM; in data set [5], 1820 µM. Moreover, the results for the kcat in data set [1] and in [4] (setting [15]) were 34.00 s-^1 and 0.40 s-^1, respectively. Besides, the kcat/Km in [1] was 730000 M⁻¹ s⁻¹.

B2: B. amyloliquefaciens subtilisin variant Q156 (Glu156 to Gln) (Bacillus amyloliquefaciens; E263Q) (protein)
chain: B1 chain with S156Q
notes: as for B1
As to B2, the Km in [6] is 45 µM; in data set [7], 24.5 µM; in data set [8] it was 155 µM; in data set [9] (setting [16]) it was 3300 µM; in [9] (other: Table XIV, 156 Gln / 166 Gly, value in parentheses, synthetic substrate with label as P-1 amino acid) it was 3310 µM; in data set [10], 1510 µM. Besides, the kcat in data set [6] was found to be 48.00 s-^1; in data set [9] (setting [16]) it was 0.90 s-^1. For the same protein, the kcat/Km is 1.1e+06 M⁻¹ s⁻¹ in data set [6] and 270 M⁻¹ s⁻¹ in data set [9] (setting [16]).

B3: B. amyloliquefaciens subtilisin variant R166 (Gly166 to Arg) (Bacillus amyloliquefaciens; G273R) (protein)
chain: B1 chain with S156E, G166R
notes: as for B1
Turning to B3, the Km is 60.3 µM in data set [11], 316 µM in [12], 501 µM in data set [13] and 1580 µM in data set [14].

The Km is the substrate concentration at which the rate is half of its maximum. By kcat/Km is commonly meant the turnover number divided by the Michaelis constant.
